Assay results: the supplement of paper PMC7877785
± gives the uncertainty stated by the source.

Experiment: self-splicing fitness, log relative to wild type (ln ratio); higher = more splicing; Tetrahymena group I intron in knt gene, E. coli kanamycin selection, DiMSum; sequences stand for … in CUCUCU…GGAGGGAAAAGUUAUCAGGCAUGCACCUGGUAGCUAGUCUUUAAACCAAUAGAUUGCAUCGGUUUAAAAGGCAAGACCGUCAAAUUGCGGGAAAGGGGUCAACAGCCGUUCAGUACCAAGUCUCAGGGGAAACUUUGAGAUGGCCUUGCAAAGGGUAUGGUAAUAAGCUGACGGACAUGGUCCUAACCACGCAGCCAAGUCCUAAGUCAACAGAUCUUCUGUUGAUAUGGAUGCAGUUCACAGACUAAAUGUCGGUCGGGGAAGAUGUAUUCUUCUCAUAAGAUAUAGUCGGACCUCUCCUUAAUGGGAGCUAGCGGAUGAAGUGAUGCAACACUGGAGCCGCUGGGAACUAAUUUGUAUGCGAAAGUAUAUUGAUUAGUUUUGGAGUACUCGUGGUCG
In short: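 Library with all eight P1ex-region intron nucleotides randomised, intron inside the knt kanamycin-resistance gene on pET-22b(+), in E. coli BL21(DE3). Cells grew overnight at 37°C or 30°C on LB agar with or without 25 μg/mL kanamycin (plus 100 μg/mL carbenicillin, 50 μM IPTG, 0.2% rhamnose), in six replicate transformations. Pooled colonies were amplicon-sequenced on Illumina HiSeq 2500. DiMSum fitness is the error-weighted combination of wild-type-normalised replicate fold changes, kanamycin versus none.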

Sequence | self-splicing fitness (ln) (30 °C) | self-splicing fitness (ln) (37 °C)
GGAAAGCAAUAUUACGUAUU | -1.25 ± 0.13 | -1.45 ± 0.16
GGAAAGCAAUAUUACGUCCA | -1.37 ± 0.28 | -0.294 ± 0.26
GGAAAGCAAUAUUACGUCUA | -0.626 ± 0.11 | 0.689 ± 0.14
GGAAAGCAAUAUUACGUGAU | -2.79 ± 0.086 | -1.76 ± 0.089
GGAAAGCAAUAUUACGUGCA | -0.965 ± 0.075 | 0.36 ± 0.099
GGAAAGCAAUAUUACGUUUG | -3.17 ± 0.26 | -1.79 ± 0.25
GGACAGCAAUAUUACGAAAU | -1.25 ± 0.11 | -0.0392 ± 0.14
GGACAGCAAUAUUACGAAUG | -2.09 ± 0.17 | -1.9 ± 0.22
GGACAGCAAUAUUACGACUG | -0.809 ± 0.12 | -0.232 ± 0.17
GGACAGCAAUAUUACGAGUA | -2.92 ± 0.15 | -1.79 ± 0.13
GGACAGCAAUAUUACGAUCU | -2.62 ± 0.18 | -1.8 ± 0.2
GGACAGCAAUAUUACGCACC | -2.25 ± 0.25 | -1.8 ± 0.38
GGACAGCAAUAUUACGCAUC | -3 ± 0.12 | -0.76 ± 0.13
GGACAGCAAUAUUACGCCCC | -0.414 ± 0.41 | –
GGACAGCAAUAUUACGCUAC | -4.74 ± 0.27 | -2.33 ± 0.24
GGACAGCAAUAUUACGCUAG | -1.85 ± 0.13 | -0.798 ± 0.17
GGACAGCAAUAUUACGCUUC | -1.74 ± 0.19 | –
GGACAGCAAUAUUACGGACG | -0.636 ± 0.12 | -0.327 ± 0.12
GGACAGCAAUAUUACGGAGG | -3.52 ± 0.15 | -0.672 ± 0.096
GGACAGCAAUAUUACGGCGC | 0.0232 ± 0.12 | 0.203 ± 0.13
GGACAGCAAUAUUACGGGCA | -0.731 ± 0.18 | -0.477 ± 0.17
GGACAGCAAUAUUACGGUAG | -1.7 ± 0.061 | -1.32 ± 0.073
GGACAGCAAUAUUACGGUUA | -0.28 ± 0.097 | 0.525 ± 0.11
GGACAGCAAUAUUACGUAAA | -0.529 ± 0.12 | 0.362 ± 0.16
GGACAGCAAUAUUACGUAAG | -0.165 ± 0.061 | 0.19 ± 0.079

Sequence | self-splicing fitness (ln) (30 °C) | self-splicing fitness (ln) (37 °C)
GGACAGCAAUAUUACGUAGC | -0.679 ± 0.084 | -0.618 ± 0.098
GGACAGCAAUAUUACGUAGG | -0.254 ± 0.053 | -0.517 ± 0.063
GGACAGCAAUAUUACGUAGU | -1.61 ± 0.059 | -1.15 ± 0.085
GGACAGCAAUAUUACGUCAA | -0.0403 ± 0.063 | 0.0855 ± 0.085
GGACAGCAAUAUUACGUCAC | -2.41 ± 0.17 | -1.56 ± 0.2
GGACAGCAAUAUUACGUGAA | -0.306 ± 0.057 | -0.142 ± 0.062
GGAGAGCAAUAUUACGAAGU | -3.48 ± 0.37 | -1.33 ± 0.2
GGAGAGCAAUAUUACGAGGU | -3.34 ± 0.32 | -3.01 ± 0.37
GGAGAGCAAUAUUACGAUGU | -1.92 ± 0.15 | -1.74 ± 0.28
GGAGAGCAAUAUUACGCAGC | -1.26 ± 0.17 | -2.78 ± 0.26
GGAGAGCAAUAUUACGGAUC | -1.91 ± 0.12 | -0.404 ± 0.14
GGAGAGCAAUAUUACGGAUU | – | -1.62 ± 0.22
GGAGAGCAAUAUUACGGCUA | -2.06 ± 0.32 | -1.25 ± 0.18
GGAGAGCAAUAUUACGGGUU | -3.71 ± 0.24 | -2.46 ± 0.19
GGAGAGCAAUAUUACGGUCG | -1.18 ± 0.25 | -1.56 ± 0.29
GGAGAGCAAUAUUACGUAGG | -3.43 ± 0.25 | -0.82 ± 0.25
GGAGAGCAAUAUUACGUCCU | -3.2 ± 0.24 | -3.27 ± 0.43
GGAGAGCAAUAUUACGUCGA | -2.7 ± 0.32 | -1.53 ± 0.26
GGAGAGCAAUAUUACGUCGU | -2.89 ± 0.21 | -2.5 ± 0.27
GGAGAGCAAUAUUACGUGUG | -4.29 ± 0.34 | -3.29 ± 0.27
GGAGAGCAAUAUUACGUUAG | -3.5 ± 0.23 | -1.54 ± 0.41
GGAGAGCAAUAUUACGUUGU | -4.01 ± 0.19 | -3.77 ± 0.24
GGAUAGCAAUAUUACGAAAG | -2.79 ± 0.48 | –
GGAUAGCAAUAUUACGAACC | -2.49 ± 0.36 | -1.77 ± 0.28
GGAUAGCAAUAUUACGAAUC | -1.72 ± 0.088 | -1.8 ± 0.12

Sequence | self-splicing fitness (ln) (30 °C) | self-splicing fitness (ln) (37 °C)
GGAUAGCAAUAUUACGACUA | -1.37 ± 0.42 | -1.11 ± 0.28
GGAUAGCAAUAUUACGAUCG | -0.534 ± 0.095 | 0.652 ± 0.14
GGAUAGCAAUAUUACGCCUA | -1.45 ± 0.14 | -0.0155 ± 0.17
GGAUAGCAAUAUUACGCUGG | -2.25 ± 0.15 | -1.05 ± 0.18
GGAUAGCAAUAUUACGGAGU | -2.95 ± 0.34 | -2.16 ± 0.42
GGAUAGCAAUAUUACGGAUU | -1.79 ± 0.12 | -0.787 ± 0.12
GGAUAGCAAUAUUACGGCAG | – | -2.18 ± 0.22
GGAUAGCAAUAUUACGGUGG | -3.85 ± 0.18 | -2.48 ± 0.14
GGAUAGCAAUAUUACGUACA | -1.42 ± 0.097 | -0.395 ± 0.098
GGAUAGCAAUAUUACGUAUG | -1.66 ± 0.28 | -0.951 ± 0.23
GGAUAGCAAUAUUACGUGAG | -1.33 ± 0.11 | 0.321 ± 0.1
GGAUAGCAAUAUUACGUGAU | -2.44 ± 0.06 | -1.06 ± 0.074
GGAUAGCAAUAUUACGUUGU | -3.13 ± 0.2 | -1.58 ± 0.15
GGCAAGCAAUAUUACGAAAC | -0.925 ± 0.13 | -0.903 ± 0.16
GGCAAGCAAUAUUACGAGUU | -1.94 ± 0.081 | -0.521 ± 0.088
GGCAAGCAAUAUUACGCGAC | -3.25 ± 0.23 | -2.23 ± 0.27
GGCAAGCAAUAUUACGCGAU | -2.6 ± 0.25 | -2.37 ± 0.24
GGCAAGCAAUAUUACGCGCC | – | -1.77 ± 0.28
GGCAAGCAAUAUUACGCGGA | -0.732 ± 0.095 | -0.268 ± 0.094
GGCAAGCAAUAUUACGCGUA | -0.585 ± 0.065 | -0.212 ± 0.076
GGCAAGCAAUAUUACGCUAG | -3.39 ± 0.24 | -2.83 ± 0.37
GGCAAGCAAUAUUACGCUGU | -4.24 ± 0.23 | -2.05 ± 0.2
GGCAAGCAAUAUUACGCUUU | -1.58 ± 0.12 | -0.416 ± 0.12
GGCAAGCAAUAUUACGGAUG | -2.34 ± 0.15 | -0.798 ± 0.15
GGCAAGCAAUAUUACGGCCC | -3.62 ± 0.36 | -1.85 ± 0.3

Sequence | self-splicing fitness (ln) (30 °C) | self-splicing fitness (ln) (37 °C)
GGCAAGCAAUAUUACGUAAC | -0.613 ± 0.064 | -0.533 ± 0.089
GGCAAGCAAUAUUACGUUCA | -0.364 ± 0.092 | 0.553 ± 0.11
GGCAAGCAAUAUUACGUUUA | -1.29 ± 0.1 | -0.0113 ± 0.11
GGCCAGCAAUAUUACGAAUG | -4.74 ± 0.39 | -2.17 ± 0.22
GGCCAGCAAUAUUACGAAUU | -3.05 ± 0.19 | -1.03 ± 0.11
GGCCAGCAAUAUUACGAGAA | – | -2.06 ± 0.36
GGCCAGCAAUAUUACGAGUG | -2.55 ± 0.11 | -1.14 ± 0.093
GGCCAGCAAUAUUACGAUUG | -3.73 ± 0.2 | -1.74 ± 0.16
GGCCAGCAAUAUUACGCAAA | -3.09 ± 0.24 | -1.02 ± 0.12
GGCCAGCAAUAUUACGCAAU | -1.17 ± 0.098 | -1.2 ± 0.09
GGCCAGCAAUAUUACGCAGA | -1.66 ± 0.082 | -1.28 ± 0.08
GGCCAGCAAUAUUACGCAUC | -0.0388 ± 0.15 | 0.0683 ± 0.16
GGCCAGCAAUAUUACGCCUC | -0.497 ± 0.13 | -0.06 ± 0.15
GGCCAGCAAUAUUACGCUUU | -0.464 ± 0.064 | 0.4 ± 0.087
GGCCAGCAAUAUUACGGCGG | -0.775 ± 0.1 | -1.53 ± 0.15
GGCCAGCAAUAUUACGGGAG | -2.14 ± 0.13 | -0.796 ± 0.12
GGCCAGCAAUAUUACGGUGU | -0.779 ± 0.058 | -0.114 ± 0.07
GGCCAGCAAUAUUACGUAAG | -1.3 ± 0.084 | -1.25 ± 0.15
GGCCAGCAAUAUUACGUACA | -2.75 ± 0.17 | -1.71 ± 0.15
GGCCAGCAAUAUUACGUCGC | -1.17 ± 0.11 | -0.0357 ± 0.11
GGCCAGCAAUAUUACGUGCU | -3.59 ± 0.15 | -2.52 ± 0.2
GGCCAGCAAUAUUACGUUAA | -3.51 ± 0.29 | -2.62 ± 0.19
